Experimental data published in patent US20080247951A1 (Genentech, published 2008).

How the values were obtained:
[1] = biological target: T1, human Robo4 expressed endogenously on HUVEC cells (human, UniProt Q8WZ75 28-1007); assay: FACS on HUVEC cells, Alexa 488 detection
T1 sequence: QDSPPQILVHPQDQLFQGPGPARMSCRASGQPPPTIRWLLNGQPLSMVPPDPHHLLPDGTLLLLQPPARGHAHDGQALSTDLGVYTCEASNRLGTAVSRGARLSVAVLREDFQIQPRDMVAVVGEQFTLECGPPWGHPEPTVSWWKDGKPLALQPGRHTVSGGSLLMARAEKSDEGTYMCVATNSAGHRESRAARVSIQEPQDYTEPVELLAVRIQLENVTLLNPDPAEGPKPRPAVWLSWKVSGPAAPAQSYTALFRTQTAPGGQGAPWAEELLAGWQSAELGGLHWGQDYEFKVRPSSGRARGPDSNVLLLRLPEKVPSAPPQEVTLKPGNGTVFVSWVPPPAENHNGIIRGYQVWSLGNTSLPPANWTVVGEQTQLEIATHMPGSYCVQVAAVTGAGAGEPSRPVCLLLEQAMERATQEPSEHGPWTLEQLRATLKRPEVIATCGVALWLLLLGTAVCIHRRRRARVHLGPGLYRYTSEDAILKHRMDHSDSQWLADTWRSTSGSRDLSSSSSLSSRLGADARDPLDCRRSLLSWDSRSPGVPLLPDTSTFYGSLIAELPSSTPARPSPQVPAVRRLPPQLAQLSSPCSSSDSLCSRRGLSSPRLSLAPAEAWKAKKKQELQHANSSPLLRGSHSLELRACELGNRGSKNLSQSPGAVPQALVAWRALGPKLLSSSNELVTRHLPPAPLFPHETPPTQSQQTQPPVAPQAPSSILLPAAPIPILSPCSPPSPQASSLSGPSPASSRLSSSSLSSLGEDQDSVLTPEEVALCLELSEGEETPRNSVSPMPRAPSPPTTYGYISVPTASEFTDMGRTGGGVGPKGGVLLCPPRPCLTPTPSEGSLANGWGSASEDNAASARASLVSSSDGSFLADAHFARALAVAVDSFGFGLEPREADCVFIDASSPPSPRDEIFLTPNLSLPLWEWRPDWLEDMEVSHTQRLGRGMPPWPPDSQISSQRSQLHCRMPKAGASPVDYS

[2] = biological target: T2, murine Robo4 expressed endogenously on MS1 cells (mouse, UniProt Q8C310 28-1012); assay: FACS on MS1 cells, Alexa 488 detection
T2 construct: whole, on cells
T2 sequence (looked up): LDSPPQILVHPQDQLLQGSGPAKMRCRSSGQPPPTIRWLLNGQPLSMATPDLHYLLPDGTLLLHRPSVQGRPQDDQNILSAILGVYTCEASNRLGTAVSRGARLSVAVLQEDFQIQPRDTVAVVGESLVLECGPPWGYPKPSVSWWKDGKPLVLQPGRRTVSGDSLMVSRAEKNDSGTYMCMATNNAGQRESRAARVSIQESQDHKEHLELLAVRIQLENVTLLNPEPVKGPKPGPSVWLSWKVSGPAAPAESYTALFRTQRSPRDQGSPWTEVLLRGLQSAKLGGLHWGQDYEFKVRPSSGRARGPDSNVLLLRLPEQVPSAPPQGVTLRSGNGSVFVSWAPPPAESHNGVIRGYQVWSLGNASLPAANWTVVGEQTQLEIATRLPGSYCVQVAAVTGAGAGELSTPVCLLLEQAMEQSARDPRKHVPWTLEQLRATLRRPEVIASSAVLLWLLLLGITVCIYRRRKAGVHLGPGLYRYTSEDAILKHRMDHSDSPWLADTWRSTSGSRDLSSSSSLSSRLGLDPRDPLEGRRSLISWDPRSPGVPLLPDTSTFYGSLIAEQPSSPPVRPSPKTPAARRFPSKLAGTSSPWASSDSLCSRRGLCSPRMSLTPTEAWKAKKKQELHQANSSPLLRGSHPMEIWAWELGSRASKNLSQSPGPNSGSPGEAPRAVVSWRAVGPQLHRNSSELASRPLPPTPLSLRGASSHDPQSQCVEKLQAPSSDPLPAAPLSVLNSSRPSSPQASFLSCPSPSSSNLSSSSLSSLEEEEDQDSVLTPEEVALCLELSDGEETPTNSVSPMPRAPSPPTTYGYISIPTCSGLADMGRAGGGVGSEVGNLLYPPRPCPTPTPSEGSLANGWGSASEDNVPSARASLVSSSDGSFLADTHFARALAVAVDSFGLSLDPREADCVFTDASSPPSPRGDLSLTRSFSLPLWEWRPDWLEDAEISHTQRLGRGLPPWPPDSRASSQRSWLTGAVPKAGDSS

binding result [1]: binds | binding result [2]: binds
B1: anti-Robo4 antibody YW71.22 (full length) (antibody, V domains shown)
VH: EVQLVESGGGLVQPGGSLRLSCAASGFTINGYYIHWVRQAPGKGLEWVGFIYPAGGDTDYADSVKGRFTISADTSKNTAYLQMNSLRAEDTAVYYCARLIGNKFGWSSYGMDYWGQGTLVTVSS
VL: DIQMTQSPSSLSASVGDRVTITCRASQDVSTAVAWYQQKPGKAPKLLIYSASFLYSGVPSRFSGSGSGTDFTLTISSLQPEDFATTYCQQSYTTPPTFGQGTKVEIKR
notes: also called parent antibody
